From US11673916B2, “Neuroprotective peptides and methods of their use” (University of Pittsburgh—Of the Commonwealth System of …, priority 2020, dated 2023)

Target: T1, Kv2.1 surface clusters (Rattus norvegicus, UniProt P15387)
T1 construct: expressed in transfected cells; host or cells: primary rat cortical neurons (E16-17 Sprague-Dawley), Lipofectamine 2000
T1 sequence (P15387 1-857): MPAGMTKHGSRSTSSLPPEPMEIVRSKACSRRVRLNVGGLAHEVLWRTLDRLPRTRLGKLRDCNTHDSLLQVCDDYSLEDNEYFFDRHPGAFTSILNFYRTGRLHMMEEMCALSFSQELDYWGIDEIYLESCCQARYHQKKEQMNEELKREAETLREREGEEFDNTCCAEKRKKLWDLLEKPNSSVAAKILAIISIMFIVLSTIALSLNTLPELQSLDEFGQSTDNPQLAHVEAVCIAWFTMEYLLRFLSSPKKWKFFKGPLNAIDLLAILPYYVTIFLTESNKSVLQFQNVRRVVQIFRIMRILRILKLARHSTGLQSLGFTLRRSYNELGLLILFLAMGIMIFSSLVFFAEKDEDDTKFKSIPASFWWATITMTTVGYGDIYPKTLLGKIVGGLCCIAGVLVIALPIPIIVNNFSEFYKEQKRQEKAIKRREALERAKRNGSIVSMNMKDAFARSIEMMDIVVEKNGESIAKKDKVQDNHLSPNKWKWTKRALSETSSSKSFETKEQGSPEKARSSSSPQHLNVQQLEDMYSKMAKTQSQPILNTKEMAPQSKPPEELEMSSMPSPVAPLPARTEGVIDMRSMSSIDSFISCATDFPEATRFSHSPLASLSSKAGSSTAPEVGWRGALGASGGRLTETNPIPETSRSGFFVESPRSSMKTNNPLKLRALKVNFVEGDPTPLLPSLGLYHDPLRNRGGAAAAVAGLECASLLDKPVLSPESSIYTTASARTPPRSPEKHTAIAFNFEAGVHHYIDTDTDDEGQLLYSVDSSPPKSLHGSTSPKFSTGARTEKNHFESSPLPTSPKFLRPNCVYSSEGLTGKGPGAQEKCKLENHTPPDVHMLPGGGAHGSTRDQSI
Assay: Kv2.1 surface cluster density in live cortical neurons co-transfected with Kv2.1-GFP and peptide-expressing plasmids
Type: cell-based
Conditions: plasmid-driven expression, 24 h after transfection, mean+/-SEM (FIG. 1C)
Protocol: In vitro experiments utilized primary cortical neuronal cultures prepared from embryonic day 16-17 Sprague-Dawley rats of either sex in a protocol described previously (McCord et al., J Physiol (Lond). 592: 3511-3521, 2014). Timed-pregnant rats (Charles River Laboratories, Wilmington, Mass.) were sacrificed by CO2 inhalation. Embryonic cortices were dissociated with trypsin (0.6 mg/mL) and cells plated in sterile 6-well plates on poly-L-ornithine-coated glass coverslips at a density of 670,000 cells per well. Cytosine arabinoside (1-2 μM) was utilized to inhibit non-neuronal proliferation on day 14 in vitro (DIV); cultures were utilized at 21-25 DIV.
Transfections were performed with Lipofectamine 2000 (L2K; Invitrogen, Carlsbad, Calif.). Cortical neuronal cultures on glass coverslips were placed into wells containing 500 μL of Dulbecco's minimum essential medium with 2% HyClone bovine serum (D2C; Thermo Fisher Scientific, Waltham, Mass.). A mixture of 1.5 μg of total cDNA and 2 μL of L2K was prepared in 100 μL of Opti-MEM I (Life Technologies Corp., Grand Island, N.Y.) for each well and added. […]
To analyze Kv2.1 distribution in live primary cortical neurons, cells were transfected with both a tdTomato construct and a GFP-tagged Kv2.1 construct (O'Connell, et al., J Neurosci. 26: 9609-9618, 2006) and imaged on a Nikon A1+ confocal microscope (Nikon, Tokyo, Japan). […] For live images of transfected neurons, object count parameters were customized to define a Kv2.1 cluster as an area of high intensity GFP fluorescence (compared to background), measuring 0.05 μm^2 or larger (Schulien et al., J Physiol (Lond). 594: 2647-2659, 2016). Kv2.1 cluster density was calculated by normalizing the number of Kv2.1 clusters counted to the somatic area of each neuron (#Kv2.1 clusters/μm^2). […] In each neuron analyzed, two populations on Kv2.1-GFP expression were first noted—(a) highly localized signals of clustered Kv2.1 channels, and (b) diffuse background staining that represents freely-dispersed, conducting Kv2.1 channels on the plasma membrane. […]

Row | Substance | mean Kv2.1 surface cluster density
1 | Kv2.2 CT: Kv2.2 channel C-terminal peptide expressed from plasmid pCMV-Kv2.2CT (EVIVDMKSTSSIDSFTSCATDFTETE) | 0.07±0.01 #Kv2.1 clusters/μm^2 of neuronal soma
2 | MKSTSDFSSIST [Sc-1, plasmid expressed scrambled control of DP-1 (pCMV-Sc-1)] | 0.14±0.03 #Kv2.1 clusters/μm^2 of neuronal soma
3 | MKSTSSIDSFTS [DP-1, plasmid expressed expanded declustering peptide (pCMV-DP-1)] | 0.04±0.01 #Kv2.1 clusters/μm^2 of neuronal soma
